Test results reported in patent publication US20020006638A1, “Methods for recombinant microbial production of fusion proteins and BPI-derived peptides” (priority 1998, published 2002).

Key:
E. coli J5 = test: Radial diffusion assay, antibacterial activity; assay type: cell-based; conditions: order: XMP.284, XMP.13, XMP.391, XMP.366, XMP.353, XMP.406, XMP.407 (most to least)
Procedure: To assess the antibacterial activity of the recombinantly produced peptides, additional experiments are conducted with E. coli J5 or E. coli E104 cells in a radial diffusion assay. For these experiments, cultures of E. coli J5 were grown overnight in TYE broth (15 g tryptone, 10 g yeast extract, 5 g NaCl per liter) and then grown to mid logarithmic phase in TEA broth media (Simon et al., Proc. Nat'l. Acad. Sci. (USA), 51:877-883 (1964)). E. coli J5 cells at 2-3×10^5 cells/mL were added to molten 0.8% agarose containing nutrient broth. Serial dilutions of peptides were prepared in 0.15 M NaCl. Five μl of the diluted peptides, or as a control, saline alone, were added to 3 mm wells prepared in the hardened agarose (5 μl/well). The plates were sealed with parafilm to prevent drying and incubated at 37° C. for 24 hours. Zones of inhibition were measured and the net areas of inhibition determined by subtracting the area comprising the 3 mm well from the area encompassing the 3 mm well plus the inhibition zone. Recombinantly produced peptides are assayed for antibacterial activity and compared to the equivalent synthetic peptides. […] Synthetic peptides XMP.406 and XMP.407 have the same sequences as peptides prepared from the encoded fusion protein described in Example 1, Section 7 and Example 3.

[1] = system: Staphylococcus aureus (four strains), Staphylococcus epidermidis, Streptococcus faecalis, Bacillus subtilis, Micrococcus lysodeikiticus, and Listeria …; conditions: 10^−6 M or 160 μg/mL; pH of either 7.0 or 5.5; cited from earlier work
[2] = system: Candida albicans and Candida parapsilosis; conditions: 10^−6 M; pH 7.0 or 5.5; cited from earlier work
gram-negative bacteria = conditions: broad range of gram-negative bacteria; Elsbach and Weiss (1992); cited from earlier work
[3] = system: human, rabbit and sheep red blood cells and several human tumor cell lines; conditions: 10^−6 M; cited from earlier work

XMP.407: BPI 147-162, P @ 147 (S), A @ 153 (W), D @ 162 (I) (PKSKVGALIQLFHKKD)
antibacterial activity, rank order of synthetic peptides (E. coli J5): the least bactericidal

XMP.284: BPI 149-161, K @ 152 (G) (SKVKWLIQLFHK)
antibacterial activity, rank order of synthetic peptides (E. coli J5): the most antibacterial activity

B1: BPI: bactericidal/permeability-increasing protein, isolated from granules of mammalian polymorphonuclear leukocytes, approximately 55 kD (protein, UniProt P17213 32-487, looked up)
Bactericidal …: VNPGVVVRISQKGLDYASQQGTAALQKELKRIKIPDYSDSFKIKHLGKGHYSFYSMDIREFQLPSSQISMVPNVGLKFSISNANIKISGKWKAQKRFLKMSGNFDLSIEGMSISADLKLGSNPTSGKPTITCSSCSSHINSVHVHISKSKVGWLIQLFHKKIESALRNKMNSQVCEKVTNSVSSELQPYFQTLPVMTKIDSVAGINYGLVAPPATTAETLDVQMKGEFYSENHHNPPPFAPPVMEFPAAHDRMVYLGLSDYFFNTAGLVYQEAGVLKMTLRDDMIPKESKFRLTTKFFGTFLPEVAKKFPNMKIQIHVSASTPPHLSVQPTGLTFYPAVDVQAFAVLPNSSLASLFLIGMHTTGSMEVSAESNRLVGELKLDRLLLELKHSNIGPFPVELLQDIMNYIVPILVLPRVNEKLQKGFPLPTPARVQLYNVVLQPHQNFLLFGADVVYK
toxic effect on gram-positive organisms [1]: no toxic effect
toxic effect on fungi [2]: no toxic effect
concentration at which anti-bacterial activity is exhibited (as low as) (gram-negative bacteria): 10^−8 to 10^−9 M
toxicity to higher eukaryotic cells [3]: non-toxic
